Measured values: patent publication US20210238276A1 (INTEGRAL MOLECULAR, published 2021)

T1: human GLUT1 (hsGLUT1) (human, UniProt P11166 1-492)
T1 construct: whole, on cells
T1 sequence (looked up): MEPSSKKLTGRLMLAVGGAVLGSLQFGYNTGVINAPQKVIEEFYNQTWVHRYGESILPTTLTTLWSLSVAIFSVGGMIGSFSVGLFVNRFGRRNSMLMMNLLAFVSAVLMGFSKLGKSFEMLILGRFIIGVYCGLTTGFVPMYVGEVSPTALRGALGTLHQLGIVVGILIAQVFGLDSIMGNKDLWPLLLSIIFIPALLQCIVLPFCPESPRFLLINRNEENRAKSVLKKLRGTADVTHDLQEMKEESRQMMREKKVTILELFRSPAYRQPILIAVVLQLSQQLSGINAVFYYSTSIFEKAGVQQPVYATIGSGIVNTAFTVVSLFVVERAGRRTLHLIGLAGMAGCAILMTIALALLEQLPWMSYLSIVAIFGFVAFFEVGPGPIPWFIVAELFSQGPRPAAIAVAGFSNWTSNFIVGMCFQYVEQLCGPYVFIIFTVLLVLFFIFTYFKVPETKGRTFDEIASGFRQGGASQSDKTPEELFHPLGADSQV

T2: hsGLUT4 Y159A (human, UniProt P14672 1-509)
T2 sequence: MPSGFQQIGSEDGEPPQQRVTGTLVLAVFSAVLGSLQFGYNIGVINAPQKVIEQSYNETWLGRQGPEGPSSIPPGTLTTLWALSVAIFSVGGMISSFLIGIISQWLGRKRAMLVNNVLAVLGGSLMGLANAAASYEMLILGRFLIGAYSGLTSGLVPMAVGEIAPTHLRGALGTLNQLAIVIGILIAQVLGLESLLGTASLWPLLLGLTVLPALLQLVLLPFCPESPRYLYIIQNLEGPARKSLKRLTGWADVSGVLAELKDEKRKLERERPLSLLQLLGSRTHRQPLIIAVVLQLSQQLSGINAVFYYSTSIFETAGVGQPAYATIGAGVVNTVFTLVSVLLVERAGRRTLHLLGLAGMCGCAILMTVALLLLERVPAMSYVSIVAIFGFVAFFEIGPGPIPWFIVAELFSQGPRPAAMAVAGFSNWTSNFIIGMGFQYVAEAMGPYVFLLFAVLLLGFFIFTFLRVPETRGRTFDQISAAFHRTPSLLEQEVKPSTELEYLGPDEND

T3: mouse GLUT4 (mmGLUT4) (mouse, UniProt P14142 1-509)
T3 construct: whole, on cells; Also tested as endogenous protein in murine 3T3-L1 adipocytes; also called endogenous GLUT4 of 3T3-L1 adipocytes
T3 sequence (looked up): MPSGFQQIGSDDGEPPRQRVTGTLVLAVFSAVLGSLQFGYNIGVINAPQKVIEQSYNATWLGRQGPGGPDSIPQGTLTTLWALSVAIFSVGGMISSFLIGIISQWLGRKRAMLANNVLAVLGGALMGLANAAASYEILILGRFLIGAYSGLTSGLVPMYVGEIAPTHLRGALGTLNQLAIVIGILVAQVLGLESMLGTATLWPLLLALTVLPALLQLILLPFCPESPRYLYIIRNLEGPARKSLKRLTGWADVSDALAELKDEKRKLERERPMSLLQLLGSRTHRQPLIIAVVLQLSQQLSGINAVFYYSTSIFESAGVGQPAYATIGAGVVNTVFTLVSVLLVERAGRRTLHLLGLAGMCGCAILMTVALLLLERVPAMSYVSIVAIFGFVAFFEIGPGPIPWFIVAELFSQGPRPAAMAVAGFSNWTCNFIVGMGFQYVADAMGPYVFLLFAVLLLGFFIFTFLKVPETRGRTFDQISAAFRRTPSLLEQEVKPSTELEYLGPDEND


Columns and labels:
human GLUT1 (hsGLUT1) = target: T1, human GLUT1 (hsGLUT1); assay: flow cytometry, permeabilized transfected HEK-293T
Protocol: HEK-293T cells were transfected by CaPO₄ with plasmids in 6-well culture plates (Falcon) at 750,000 cells/well. At 48 hours post transfection, cells were stained with anti-V5 and anti-GLUT4 MAbs (purified scFv, 2 μg/ml) followed by biotinylated goat anti-mouse or human antibody (1:500) and streptavidin-PerCP (1:500). Fluorescence was detected using an Intellicyt high-throughput flow cytometer (HTFC; Intellicyt, Albuquerque, N. Mex.). For cell permeabilization, cells were treated with saponin at 0.1% in PBS for 20 minutes. To discriminate intact (live) and permeabilized (dead) cells without the use of detergent, propidium iodide (PI) was added to HEK-293T cells at 1 ug/ml just prior to flow cytometry. Where indicated, cytochalasin B (Sigma) was used at a final concentration of 10 uM and phloretin (Sigma) was used at a final concentration of 100 uM, each added in 10% NGS for 30 minutes prior to antibody staining as well as included with the primary antibody.

hsGLUT4 Y159A = target: T2, hsGLUT4 Y159A; assay: flow cytometry, alanine-scan library in HEK-293T, with cytochalasin B
mouse GLUT4 (mmGLUT4) = target: T3, mouse GLUT4 (mmGLUT4); assay: immunofluorescence, surface of 3T3-L1 adipocytes (data not shown)
Protocol: Adipocytes, between 7-8 days post-differentiation, were serum-starved for 3 hours in Dulbecco's modified Eagle's medium with […] bicarbonate and 20 mM HEPES pH 7.4, prior to stimulation for 20 minutes at 37° C. with or without 170 nM human insulin (Sigma Aldrich) prepared in the same media with 2% BSA. Adipocytes were washed twice with ice-cold PBS with calcium and magnesium (PBS+/+) and remained on ice for all subsequent steps.
Adipocytes were blocked with 10% Normal Goat Serum (NGS) in PBS+/+ for 30 minutes on ice before adding test antibodies at 10 ug/ml in 10% NGS. Primary antibodies were incubated for 2 hours, then washed 2× with PBS+/+. Cells were subsequently fixed for 5 minutes in 4% paraformaldehyde (PFA), washed 2× with PBS+/+, and then stained with secondary antibody (AF488 conjugated Goat anti-human, Jackson Immunoresearch) diluted 1:200 in 10% NGS. Secondary antibody was incubated for 1 hour, after washing 3× with PBS+/+. For intracellular staining, cells were fixed prior to the blocking step and permeabilized with 10% NGS containing 0.2% Saponin. The 1F8 antibody was used at 1 μg/ml, and detected using AF647-conjugated goat anti-mouse secondary antibody diluted 1:400 (Jackson Immunoresearch). Alexafluor 488 was visualized using the B-2EC cube with an exposure time of 1.5 seconds. Alexafluor 647 was visualized using the Cy5 cube with an exposure time of 2 seconds.

binding result (human GLUT1 (hsGLUT1))	% of binding to wild type GLUT4 (hsGLUT4 Y159A)	binding result (mouse GLUT4 (mmGLUT4))	Binder
binds	11%		AB102 (Fc fusion, also called MAb AB102; not shown: Fc fragment of human IgG1, cloned in frame with the scFv) scFv: ALTQPSSVSANLGGTVKITCSGGGSYGYGWYQQKSPGSAPVTVIYSNDQRPSDIPSRFSGSKSGSTATLTITGVRAEDEAIYYCGSTDSDYVGIFGAGTTLTVLGQSSRSSGGGGSSGGGGSAVTLDESGGGLQTPGGTLSLVCKASGFDFSSYATIWVRQAPGKGLEWVAGISGTGTGSSTGYAPAVKGRATISRDNGQSTVRLQLNNLRAEDTGSYFCAKSTGYGDSWIYPDSIDAWGHGTEVIVSS
		binds	AB105 (Fc fusion, Bivalent scFv-Fc; also called MAb AB105; not shown: Fc fragment of human IgG1, cloned in frame with the scFv) scFv: ALTQPSSVSANPGETVEITCSGDSSYYGWYQQKSPGSAPVTVIYANTNRPSDIPSRFSGSASGSTATLTITGVQAEDEAVYYCGSADSTYAGIFGAGTTLTVLGQSSRSSGGGGSSGGGGSAVTLDESGGGLQTPGGALSLICKASGFTFSSYTMNWVRQAPGKGLEWVGVISNSGRTTNYGAAVQGRATISRDNGQSTVRLQLNNLRAEDTGTYYCAKSSASASCAWWAGRSYPCSANRIDAWGHGTEVIVSS
